# Data reported in article PMC12255788.
# Biological target: His6-SUMO-NOT7 (human) (UniProt Q9UIV1)
# Assay: mass photometry
# Chain of His6-SUMO-NOT7 (human) (Q9UIV1 whole entry): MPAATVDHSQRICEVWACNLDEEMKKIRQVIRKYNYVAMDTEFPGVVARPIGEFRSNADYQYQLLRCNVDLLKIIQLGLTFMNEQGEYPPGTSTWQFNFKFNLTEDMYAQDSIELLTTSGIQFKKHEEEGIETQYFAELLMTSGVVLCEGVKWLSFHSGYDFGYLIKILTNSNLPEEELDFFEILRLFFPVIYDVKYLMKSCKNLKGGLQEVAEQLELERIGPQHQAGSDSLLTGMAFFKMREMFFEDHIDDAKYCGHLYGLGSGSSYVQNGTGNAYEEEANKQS
substance,measurement,value
His6-PieF (from UniProt A0AAN5PHN6) (natural protein),stoichiometry N,1
